From paper PMC7367873, “Dissecting the sequence determinants for dephosphorylation by the catalytic subunits of phosphatases PP1 and PP2A” (Nature Communications, 2020)

B1: SLC43A3 (protein, UniProt Q8NBI5 1-491, looked up)
Equilibrative nucleobase …: MAGQGLPLHVATLLTGLLECLGFAGVLFGWPSLVFVFKNEDYFKDLCGPDAGPIGNATGQADCKAQDERFSLIFTLGSFMNNFMTFPTGYIFDRFKTTVARLIAIFFYTTATLIIAFTSAGSAVLLFLAMPMLTIGGILFLITNLQIGNLFGQHRSTIITLYNGAFDSSSAVFLIIKLLYEKGISLRASFIFISVCSTWHVARTFLLMPRGHIPYPLPPNYSYGLCPGNGTTKEEKETAEHENRELQSKEFLSAKEETPGAGQKQELRSFWSYAFSRRFAWHLVWLSVIQLWHYLFIGTLNSLLTNMAGGDMARVSTYTNAFAFTQFGVLCAPWNGLLMDRLKQKYQKEARKTGSSTLAVALCSTVPSLALTSLLCLGFALCASVPILPLQYLTFILQVISRSFLYGSNAAFLTLAFPSEHFGKLFGLVMALSAVVSLLQFPIFTLIKGSLQNDPFYVNVMFMLAILLTFFHPFLVYRECRTWKESPSAIA
B2: STT3B (protein, UniProt Q8TCJ2 2-826, looked up)
Dolichyl-diphosphooligosacchar …: AEPSAPESKHKSSLNSSPWSGLMALGNSRHGHHGPGAQCAHKAAGGAAPPKPAPAGLSGGLSQPAGWQSLLSFTILFLAWLAGFSSRLFAVIRFESIIHEFDPWFNYRSTHHLASHGFYEFLNWFDERAWYPLGRIVGGTVYPGLMITAGLIHWILNTLNITVHIRDVCVFLAPTFSGLTSISTFLLTRELWNQGAGLLAACFIAIVPGYISRSVAGSFDNEGIAIFALQFTYYLWVKSVKTGSVFWTMCCCLSYFYMVSAWGGYVFIINLIPLHVFVLLLMQRYSKRVYIAYSTFYIVGLILSMQIPFVGFQPIRTSEHMAAAGVFALLQAYAFLQYLRDRLTKQEFQTLFFLGVSLAAGAVFLSVIYLTYTGYIAPWSGRFYSLWDTGYAKIHIPIIASVSEHQPTTWVSFFFDLHILVCTFPAGLWFCIKNINDERVFVALYAISAVYFAGVMVRLMLTLTPVVCMLSAIAFSNVFEHYLGDDMKRENPPVEDSSDEDDKRNQGNLYDKAGKVRKHATEQEKTEEGLGPNIKSIVTMLMLMLLMMFAVHCTWVTSNAYSSPSVVLASYNHDGTRNILDDFREAYFWLRQNTDEHARVMSWWDYGYQIAGMANRTTLVDNNTWNNSHIALVGKAMSSNETAAYKIMRTLDVDYVLVIFGGVIGYSGDDINKFLWMVRIAEGEHPKDIRESDYFTPQGEFRVDKAGSPTLLNCLMYKMSYYRFGEMQLDFRTPPGFDRTRNAEIGNKDIKFKHLEEAFTSEHWLVRIYKVKAPDNRETLDHKPRVTNIFPKQKYLSKKTTKRKRGYIKNKLVFKKGKKISKKTV
B3: MAP7 (protein, UniProt Q14244 2-749, looked up)
Ensconsin: AELGAGGDGHRGGDGAVRSETAPDSYKVQDKKNASSRPASAISGQNNNHSGNKPDPPPVLRVDDRQRLARERREEREKQLAAREIVWLEREERARQHYEKHLEERKKRLEEQRQKEERRRAAVEEKRRQRLEEDKERHEAVVRRTMERSQKPKQKHNRWSWGGSLHGSPSIHSADPDRRSVSTMNLSKYVDPVISKRLSSSSATLLNSPDRARRLQLSPWESSVVNRLLTPTHSFLARSKSTAALSGEAASCSPIIMPYKAAHSRNSMDRPKLFVTPPEGSSRRRIIHGTASYKKERERENVLFLTSGTRRAVSPSNPKARQPARSRLWLPSKSLPHLPGTPRPTSSLPPGSVKAAPAQVRPPSPGNIRPVKREVKVEPEKKDPEKEPQKVANEPSLKGRAPLVKVEEATVEERTPAEPEVGPAAPAMAPAPASAPAPASAPAPAPVPTPAMVSAPSSTVNASASVKTSAGTTDPEEATRLLAEKRRLAREQREKEERERREQEELERQKREELAQRVAEERTTRREEESRRLEAEQAREKEEQLQRQAEERALREREEAERAQRQKEEEARVREEAERVRQEREKHFQREEQERLERKKRLEEIMKRTRRTEATDKKTSDQRNGDIAKGALTGGTEVSALPCTTNAPGNGKPVGSPHVVTSHQSKVTVESTPDLEKQPNENGVSVQNENFEEIINLPIGSKPSRLDVTNSESPEIPLNPILAFDDEGTLGPLPQVDGVQTQQTAEVI

Each molecule was assayed on GFP-14-3-3β (assay: GFP-14-3-3β co-IP with LC-MS/MS, untreated GFP-14-3-3β versus GFP control (14-3-3 interactome)). Details: log2 difference; pairwise comparison untreated vs GFP, label-free quantification, 3 replicates each.
Format: binding, human
For B1, the “Difference (log2), untreated vs GFP” value was -0.216.
In the case of B2, the “Difference (log2), untreated vs GFP” value is reported as -0.7683.
For B3, the “Difference (log2), untreated vs GFP” value was -0.1668.

These molecules were tested on GFP-14-3-3β and its binding proteins (assay: GFP-14-3-3β co-IP with LC-MS/MS label-free quantification, untreated versus PP1c-treated). Details: log2 difference; pairwise comparison PP1 vs untreated, label-free quantification, 3 replicates each.
Design: species or system human
With B1 the “Difference (log2), PP1 vs untreated” value was 1.303.
In the case of B2, the “Difference (log2), PP1 vs untreated” value is reported as 1.284.
In the case of B3, the “Difference (log2), PP1 vs untreated” value is reported as 1.312.
